Measurements taken from IntAct's records for PubMed 23877428.

B1: Scaffold protein ILK (Homo sapiens), Q13418 (parent)
chain: MDDIFTQCREGNAVAVRLWLDNTENDLNQGDDHGFSPLHWACREGRSAVVEMLIMRGARINVMNRGDDTPLHLAASHGHRDIVQKLLQYKADINAVNEHGNVPLHYACFWGQDQVAEDLVANGALVSICNKYGEMPVDKAKAPLRELLRERAEKMGQNLNRIPYKDTFWKGTTRTRPRNGTLNKHSGIDFKQLNFLTKLNENHSGELWKGRWQGNDIVVKVLKVRDWSTRKSRDFNEECPRLRIFSHPNVLPVLGACQSPPAPHPTLITHWMPYGSLYNVLHEGTNFVVDQSQAVKFALDMARGMAFLHTLEPLIPRHALNSRSVMIDEDMTARISMADVKFSFQCPGRMYAPAWVAPEALQKKPEDTNRRSADMWSFAVLLWELVTREVPFADLSNMEIGMKVALEGLRPTIPPGISPHVCKLMKICMNEDPAKRPKFDMIVPILEKMQDK
partner: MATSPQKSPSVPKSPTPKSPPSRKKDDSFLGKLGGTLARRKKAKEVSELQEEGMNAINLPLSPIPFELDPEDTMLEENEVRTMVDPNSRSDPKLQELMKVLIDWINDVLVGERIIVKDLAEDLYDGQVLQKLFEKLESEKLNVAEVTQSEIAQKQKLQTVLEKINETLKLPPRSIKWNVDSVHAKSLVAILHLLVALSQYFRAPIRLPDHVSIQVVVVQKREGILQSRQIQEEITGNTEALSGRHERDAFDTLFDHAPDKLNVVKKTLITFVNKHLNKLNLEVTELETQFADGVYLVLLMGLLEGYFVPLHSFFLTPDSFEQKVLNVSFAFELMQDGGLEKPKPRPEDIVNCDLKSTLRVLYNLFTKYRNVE

Variants of: B1
Conditions: with parva_human PARVA

Row | Variant | effect of a mutation on the interaction
1 | MDDIFTQCREGNAVAVRLWLDNTENDLNQGDDHGFSPLHWACREGRSAVVEMLIMRGARINVMNRGDDTPLHLAASHGHRDIVQKLLQYKADINAVNEHGNVPLHYACFWGQDQVAEDLVANGALVSICNKYGEMPVDKAKAPLRELLRERAEKMGQNLNRIPYKDTFWKGTTRTRPRNGTLNKHSGIDFKQLNFLTKLNENHSGELWKGRWQGNDIVVKVLKVRDWSTRKSRDFNEECPRLRIFSHPNVLPVLGACQSPPAPHPTLITHWMPYGSLYNVLHEGTNFVVDQSQAVKFALDMARGMAFLHTLEPLIPRHALNSRSVMIDEDMTARISMADVKFSFQCPGRMYAPAWVAPEALQKKPEDTNRRSADMWSFAVLLWELVTREVPFADLSNMEIGAAVALEGLRPTIPPGISPHVCKLMKICMNEDPAKRPKFDMIVPILEKMQDK [M402A;K403A] | disrupting interaction
